This experiment concerns the target T1, VEGFR-3/EpoR (Homo sapiens, UniProt P35916).
T1 construct: a chimeric receptor containing the extracellular domain of human VEGFR-1, VEGFR-2 or VEGFR-3 fused with the transmembrane and cytoplasmic domains; expressed in transfected cells; host or cells: murine Ba/F3 pre-B cells, stably transfected
T1 sequence (P35916 25-775 limits assumed): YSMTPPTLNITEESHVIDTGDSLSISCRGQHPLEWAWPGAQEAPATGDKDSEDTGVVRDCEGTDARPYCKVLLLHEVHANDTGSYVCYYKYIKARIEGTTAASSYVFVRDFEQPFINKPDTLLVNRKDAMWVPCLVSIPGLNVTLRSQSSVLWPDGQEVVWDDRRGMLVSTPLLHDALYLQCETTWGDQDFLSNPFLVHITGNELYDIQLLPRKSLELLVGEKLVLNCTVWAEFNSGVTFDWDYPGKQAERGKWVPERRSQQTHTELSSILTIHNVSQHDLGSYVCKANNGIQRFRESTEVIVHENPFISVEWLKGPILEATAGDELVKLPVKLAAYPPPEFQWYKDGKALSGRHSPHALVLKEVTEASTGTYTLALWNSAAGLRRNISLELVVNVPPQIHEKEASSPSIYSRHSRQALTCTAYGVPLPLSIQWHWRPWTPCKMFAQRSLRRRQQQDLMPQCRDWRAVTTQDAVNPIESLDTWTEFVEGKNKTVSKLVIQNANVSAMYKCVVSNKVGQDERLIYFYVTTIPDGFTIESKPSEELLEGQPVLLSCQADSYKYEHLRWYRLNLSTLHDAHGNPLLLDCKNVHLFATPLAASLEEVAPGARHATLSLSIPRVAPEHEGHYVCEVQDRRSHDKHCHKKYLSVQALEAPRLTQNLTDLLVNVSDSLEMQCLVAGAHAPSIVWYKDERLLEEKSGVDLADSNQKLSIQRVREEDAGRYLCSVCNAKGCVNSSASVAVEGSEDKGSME
Kind of experiment: Ba/F3 bioassay, viability (MTT) of VEGFR-3/EpoR cells. Format: cell-based. The protocol: FIG. 1A-FIG. 1C. Analysis of the receptor-specificities of different VEGFs using the Ba/F3 bioassay. Measurement of the viability of Ba/F3 cells expressing the chimeric receptors VEGFR-1/EpoR (FIG. 1A), VEGFR-2/EpoR (FIG. 1B) or VEGFR-3/EpoR (FIG. 1C) in the presence of different VEGFs at indicated concentrations. Cell viability was determined using the MTT assay. Data represent the mean values from triplicate assays (mean±s.d.). FIG. 1D-FIG. 1G. Biosensor analysis of the interaction of VEGF-C (FIG. 1D, FIG. 1E) and VEGF-C156S (FIG. 1F, FIG. 1G) with VEGFR-3 (FIG. 1D, FIG. 1F) and VEGFR-2 (FIG. 1E, FIG. 1G). Chimeric receptor proteins were immobilized onto a carboxymethylated dextran surface. Growth factors were injected over the surface at a flow rate of 20 μl/min at the indicated concentrations. The sensorgrams shown have been subtracted with the corresponding signal obtained when the same sample was passed over a blank control channel.
Bioassay for VEGFR stimulation. […]
VEGF is an endothelial cell mitogen which has been also shown to protect endothelial cells from starvation and TNF-a induced apoptosis via activation of VEGFR-2 (Gerber et al, J. Biol. Chem., 273:30336-30343, 1998; Spyridopoulos et al., J. Mol. Cell. Cardiol., 29:1321-1330, 1997). […] The specificities of the growth factors used were determined using a cell survival bioassay. […]

One molecule from patent publication US20080317723A1, “LYMPHATIC ENDOTHELIAL CELLS MATERIALS AND METHODS” (VEGENICS LIMITED, priority 2001, published 2008) can be followed below.

B1: VEGF-C156S: VEGFR-3 specific mutant form of VEGF-C, cysteine 156 changed into serine; recombinant human (Thr103 to Ile225) (protein, UniProt P49767 103-225, looked up, variant C156S)
chain: TEETIKFAAAHYNTEILKSIDNEWRKTQCMPREVCIDVGKEFGVATNTFFKPPSVSVYRCGGCCNSEGLQCMNTSTSYLSKTLFEITVPLSQGPKPVTISFANHTSCRCMSKLDVYRQVHSII
For the molecule B1, for the setting “Ba/F3 VEGFR-3/EpoR cells”, the “concentration which gave maximal viability in VEGFR-3/EpoR cell survival assays” value turned out to be 500 ng/mL. Further, the “survival of VEGFR-3/EpoR expressing cells” value (Ba/F3 cells, FIG. 1C) is recorded as “VEGFR-3/EpoR expressing cells survived”.
